From patent US5856138A, “Human parathyroid hormone muteins and production thereof” (Takeda Chemical Industries, Ltd., priority 1991, dated 1999)
Substitutions are numbered along the chain they refer to.

T1: human PTH receptor (Mus musculus, UniProt P41593)
T1 construct: mouse cranial bone-derived osteoblast-like cell strain MC3T3-EI cultivated on a 96-well multiplate; endogenous in cells; host or cells: MC3T3-E1 (mouse cranial bone-derived osteoblast-like cells)
T1 sequence (P41593 27-591): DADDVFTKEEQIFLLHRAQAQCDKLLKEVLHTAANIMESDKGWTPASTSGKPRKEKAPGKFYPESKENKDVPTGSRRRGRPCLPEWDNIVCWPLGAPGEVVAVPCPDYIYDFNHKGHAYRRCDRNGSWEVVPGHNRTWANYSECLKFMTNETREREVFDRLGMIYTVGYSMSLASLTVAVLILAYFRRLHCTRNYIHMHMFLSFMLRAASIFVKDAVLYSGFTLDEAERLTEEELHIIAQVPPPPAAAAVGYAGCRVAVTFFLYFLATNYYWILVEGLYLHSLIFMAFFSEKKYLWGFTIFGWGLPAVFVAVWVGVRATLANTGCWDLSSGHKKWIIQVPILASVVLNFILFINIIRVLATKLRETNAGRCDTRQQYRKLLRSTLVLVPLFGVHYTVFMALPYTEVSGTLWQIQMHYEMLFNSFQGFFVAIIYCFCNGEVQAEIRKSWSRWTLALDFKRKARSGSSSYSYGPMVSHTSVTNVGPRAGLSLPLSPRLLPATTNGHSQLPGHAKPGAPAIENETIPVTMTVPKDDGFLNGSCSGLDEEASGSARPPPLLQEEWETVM

B1: [Leu^8 ] human PTH (protein)
chain: SVSEIQLLHNLGKHLNSMERVEWLRKKLQDVHNFVALGAPLAPRDAGSQRPRKKEDNVLVESHEKSLGEADKADVNVLTKAKSQ
B2: [Leu^8,18 ] human PTH: human PTH (1-84) mutein in which methionine residues at the 8- and 18-positions were substituted by leucine (protein)
chain: B1 chain with M18L
B3: [Cys^35 ] human PTH: human PTH (1-84) mutein in which valine at the 35-position was substituted by cysteine (protein)
chain: B1 chain with L8M, V35C
B4: [Leu^18 ] human PTH: human PTH (1-84) mutein in which methionine at the 18-position was substituted by leucine (protein)
chain: B1 chain with L8M, M18L

These molecules were tested against human PTH receptor (assay: not given). Settings: not given.
With [Cys35] human PTH (1-84) (ligand) the cAMP production in MC3T3-EI cells; specific activity on the natural type human PTH (relative to natural type human PTH) was 0.6. With [Leu8,18] human PTH (1-84) (ligand) the cAMP production in MC3T3-EI cells; specific activity on the natural type human PTH (relative to natural type human PTH) was 0.3. [Leu8] human PTH (1-84) (ligand) gave a cAMP production in MC3T3-EI cells; specific activity on the natural type human PTH (relative to natural type human PTH) of 1. [Leu18] human PTH (1-84) (ligand) gave a cAMP production in MC3T3-EI cells; specific activity on the natural type human PTH (relative to natural type human PTH) of 0.2. natural type human PTH (1-84) (ligand) was tested, and the cAMP production in MC3T3-EI cells; specific activity on the natural type human PTH (relative to natural type human PTH) was 1.

These molecules were tested against T1, human PTH receptor (assay: cAMP production in osteoblast-like MC3T3-EI cells (modified method of Shigeno et al.)). Settings: specific activity of the muteins on the natural type human PTH (=1.0), 0.01-100 nM analogue, room temperature, 30 minutes.
Format: cell-based
Description: The biological activity of human PTH muteins obtained in Examples 2 to 6 and natural type human PTH were evaluated by a modification of the method reported by Shigeno et al. [The Journal of Biological Chemistry 263. 18369-18377 (1988)]. A culture solution (Hank's solution containing 20 mM N-2-hydroxyethylpiperazine-N'-2-ethanesulfonic acid (HEPES), 0.1% bovine serum albumin (BSA) and 0.5 mM isobutylmethylxanthine) containing 0.01, 0.1, 1, 10 or 100 nM analogue was added in an amount of 100 μl to mouse cranial bone-derived osteoblast-like cell strain MC3T3-EI cultivated on a 96-well multiplate (Nunclon, Nunc), followed by reaction at room temperature for 30 minutes. After addition of 100 μl of 0.2N hydrochloric acid, the mixture was immersed in boiling water for 2.5 minutes, and cyclic adenosine monophosphate (cAMP) produced by a human PTH receptor was extracted from the cells. The total cAMP in the culture solution and the cells was assayed using a commercial radioimmunoassay kit (cyclic AMP [^125 I] kit "Du Pont-Daiichil", Daiichi Kagaku Yakuhin). An increase in cAMP production depending on the concentration of the human PTH mutein added was always observed. The specific activity of the muteins on the natural type human PTH is as follows: […]
For “Human PTH: natural type parathyroid hormone, polypeptide hormone consisting of 84 amino acids [reference compound]”, the “Specific Activity” value was 1.0. For B1, the “Specific Activity” value was 1.0. In the case of B2, the “Specific Activity” value is reported as 0.3. In the case of B3, the “Specific Activity” value is reported as 0.6. In the case of B4, the “Specific Activity” value is reported as 0.2.
